According to article PMC11978871, “PACT prevents aberrant activation of PKR by endogenous dsRNA without sequestration” (Nature Communications, 2024):

Columns and labels:
[1] = target: the molecule itself; experiment: NMR structure; PACT D3 in 20 mM HEPES pH 7.5, 50 mM KCl, 2 mM DTT, 30 °C; inter-chain NOEs from a mixed-isotope sample (0.4 mM each protomer)
[2] = target: T1, PKR K296R (UniProt P19525 1-551, K296R); experiment: SEC-MALS; 3 PKR per dsRNA; EMSA: 20 mM HEPES pH 7.5, 150 mM NaCl, 2 mM DTT, RT 15 min, 0.2 ng/ul 32P-112 bp dsRNA, 0-4000 nM protein, Bis-Tris native PAGE; smFRET buffer not in material; settings: protein: recombinant; tags: pET29b; Cy5-labeled in smFRET; blunt
[3] = target: T1, PKR K296R; experiment: SEC-MALS; 4 PKR per dsRNA; EMSA: 20 mM HEPES pH 7.5, 150 mM NaCl, 2 mM DTT, RT 15 min, 0.2 ng/ul 32P-112 bp dsRNA, 0-4000 nM protein, Bis-Tris native PAGE; smFRET buffer not in material; settings: protein: recombinant; tags: pET29b; Cy5-labeled in smFRET; blunt

T1 sequence (P19525 whole entry K296R): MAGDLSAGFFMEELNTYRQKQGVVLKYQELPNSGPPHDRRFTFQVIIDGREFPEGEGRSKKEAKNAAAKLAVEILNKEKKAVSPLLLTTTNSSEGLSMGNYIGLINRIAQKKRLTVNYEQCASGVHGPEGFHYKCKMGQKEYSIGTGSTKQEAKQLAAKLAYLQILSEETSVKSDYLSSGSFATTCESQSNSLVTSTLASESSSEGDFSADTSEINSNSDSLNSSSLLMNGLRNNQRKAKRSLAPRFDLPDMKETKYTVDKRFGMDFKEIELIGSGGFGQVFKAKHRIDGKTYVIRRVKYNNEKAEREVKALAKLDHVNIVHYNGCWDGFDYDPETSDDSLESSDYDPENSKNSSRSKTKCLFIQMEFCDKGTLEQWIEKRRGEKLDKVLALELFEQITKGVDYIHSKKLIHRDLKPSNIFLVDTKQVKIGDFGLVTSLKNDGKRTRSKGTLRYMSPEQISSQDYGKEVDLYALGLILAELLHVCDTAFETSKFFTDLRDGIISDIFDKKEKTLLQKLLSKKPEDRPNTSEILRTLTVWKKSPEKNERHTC

B1: PACT DRBD3 (residues 235-313) (domain or fragment, UniProt O75569 235-313, looked up)
chain: SIPNTDYIQLLSEIAKEQGFNITYLDIDELSANGQYQCLAELSTSPITVCHGSGISCGNAQSDAAHNALQYLKIIAERK
modifications: isotope-labelled (15N, 13C, ~85% 2H; for the mixed sample 15N,2H-labelled and 13C-labelled protomers)
notes: PACT DRBD3, residues 235-313, in pET47b between BamHI and SalI; Homodimer in the NMR structure; also called PACT D3; source: E. coli BL21(DE3) in M9 minimal media, purified (Ni-NTA, SEC)
For B1, the “stoichiometry N” value [1] was 2.

B2: 42 bp dsRNA (dsRNA)
RNA 1: GGGAGAAUGUCGAAUGGGUAUUCCACAGACGAGAAUUCUCCC
RNA 2: GGGAGAAUUCUCGUCUGUGGAAUACCCAUUCGACAUUCUCCC
B2: binds [2].

B3: 62 bp dsRNA (dsRNA)
RNA 1: GGGAGAAUGUCGAAUGGGUAUUCCACAGACGAGAAUUUCCGCUAUCUCAUCUCGUGUCUCCC
RNA 2: GGGAGACACGAGAUGAGAUAGCGGAAAUUCUCGUCUGUGGAAUACCCAUUCGACAUUCUCCC
B3: binds [3].
